In patent US20200317768A1 (published 2020):
Changes are numbered by the printed parent chain.

T1: cynomolgus monkey FcγRIIIaS extracellular domain, C-terminal His-tag (cynomolgus monkey, UniProt Q8SPW2 21-206 at identity 1.00))
T1 construct: also called cyno FcγRIIIaS; cynoFcγRIIIaS
T1 chain: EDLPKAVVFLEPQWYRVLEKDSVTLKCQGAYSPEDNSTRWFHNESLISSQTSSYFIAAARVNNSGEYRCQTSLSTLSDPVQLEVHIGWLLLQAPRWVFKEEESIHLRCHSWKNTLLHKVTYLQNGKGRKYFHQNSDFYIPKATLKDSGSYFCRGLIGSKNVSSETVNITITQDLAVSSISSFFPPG

T2: cynomolgus monkey FcγRIIb extracellular domain, C-terminal His-tag (cynomolgus monkey)
T2 construct: also called cyno FcγRIIb; cynoFcγRIIb
T2 chain: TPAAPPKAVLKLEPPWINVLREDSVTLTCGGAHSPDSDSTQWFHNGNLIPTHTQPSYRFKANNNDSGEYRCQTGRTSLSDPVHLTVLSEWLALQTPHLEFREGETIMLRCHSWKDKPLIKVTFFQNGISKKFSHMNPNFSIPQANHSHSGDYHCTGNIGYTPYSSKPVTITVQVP

T3: human FcγRIIaH extracellular domain, C-terminal His-tag (human, UniProt P12318 34-217)
T3 construct: also called human FcγRIIa (type H); FcgRIIaH
T3 sequence: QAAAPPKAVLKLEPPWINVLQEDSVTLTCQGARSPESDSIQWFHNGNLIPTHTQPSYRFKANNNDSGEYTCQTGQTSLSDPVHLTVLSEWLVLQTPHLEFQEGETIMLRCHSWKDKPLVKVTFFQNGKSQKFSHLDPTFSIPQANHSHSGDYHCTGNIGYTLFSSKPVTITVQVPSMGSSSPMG

T4: human FcγRIIaR extracellular domain, C-terminal His-tag (human, UniProt P12318 34-217)
T4 construct: also called human FcγRIIa (type R); FcgRIIaR
T4 chain: T3 sequence with H134R

T5: human FcγRIIb extracellular domain, C-terminal His-tag (human, UniProt P31994 43-217)
T5 construct: also called human FcgRIIb; FcgRIIb
T5 sequence: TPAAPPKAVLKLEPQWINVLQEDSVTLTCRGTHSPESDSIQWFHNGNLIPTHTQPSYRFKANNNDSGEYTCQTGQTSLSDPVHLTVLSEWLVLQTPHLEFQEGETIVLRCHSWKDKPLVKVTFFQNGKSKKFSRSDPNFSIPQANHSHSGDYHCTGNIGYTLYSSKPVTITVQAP

T6: cynomolgus monkey FcγRIIa2 extracellular domain, C-terminal His-tag (cynomolgus monkey)
T6 construct: also called cyno FcγRIIa2; cynoFcgRIIa2
T6 chain: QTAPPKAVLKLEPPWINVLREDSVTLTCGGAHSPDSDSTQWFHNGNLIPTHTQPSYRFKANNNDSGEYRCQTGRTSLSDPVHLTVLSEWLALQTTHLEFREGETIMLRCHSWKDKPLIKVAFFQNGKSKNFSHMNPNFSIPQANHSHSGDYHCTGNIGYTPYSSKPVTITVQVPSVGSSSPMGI

T7: cynomolgus monkey FcγRIIa3 extracellular domain, C-terminal His-tag (cynomolgus monkey)
T7 construct: also called cyno FcγRIIa3; cynoFcgRIIa3
T7 chain: T6 chain with K127I, N130K, H133P, Q142R

B1: M103205H795-MY051/M103202L889-SK1 (antibody, human IgG1, kappa)
heavy: QVTLKESGPVLVKPTETLTLTCTVSGIDLSHDDISWVRQAPGKGLEWVGIISYAGSTYYASWAKGRLTISKDTSKNQVVLTMTNMDPVDTATYYCARGVPAYSHGGDLWGQGTLVTVSSASTKGPSVFPLAPSSKSTSGGTAALGCLVKDYFPEPVTVSWNSGALTSGVHTFPAVLQSSGLYSLSSVVTVPSSSLGTQTYICNVNHKPSNTKVDKKVEPKSCDKTHTCPPCPAPELLNGPSVFLFPPKPKDTLMISRTPEVTCVVVDVSEEDGEVKFNWYVDGVEVHNAKTKPREEQYNSTYRVVSVLTVLHQDWLNGKEYKCKVSNKALPAPIEKTISKAKGQPREPQVYTLPPSREEMTKNQVSLTCLVKGFYPSDIAVEWESNGQPENNYKTTPPVLDSDGSFFLYSKLTVDKSRWQQGNVFSCSVMHEALHNHYTQKSLSLSP
light: DIVMTQSPATLSLSPGERATLSCTSSQSVYHANWLSWFQQKPGQPPKLLIYWASTLAYGVPSRFSGSGSGTDFTLTISSLQPEDAATYYCAGGYGGGRYAFGQGTKVEIKRTVAAPSVFIFPPSDEQLKSGTASVVCLLNNFYPREAKVQWKVDNALQSGNSQESVTEQDSKDSTYSLSSTLTLSKADYEKHKVYACEVTHQGLSSPVTKSFNRGEC
notes: Substitutions introduced into M103205H795-SG1; expressed with M103202L889-SK1 as light chain
B2: M103205H795-MY050/M103202L889-SK1 (antibody, human IgG1, kappa)
heavy: B1 heavy with S269A, G273P
light: B1 light
notes: as for B1
B3: M103205H795-MY048/M103202L889-SK1 (antibody, human IgG1, kappa)
heavy: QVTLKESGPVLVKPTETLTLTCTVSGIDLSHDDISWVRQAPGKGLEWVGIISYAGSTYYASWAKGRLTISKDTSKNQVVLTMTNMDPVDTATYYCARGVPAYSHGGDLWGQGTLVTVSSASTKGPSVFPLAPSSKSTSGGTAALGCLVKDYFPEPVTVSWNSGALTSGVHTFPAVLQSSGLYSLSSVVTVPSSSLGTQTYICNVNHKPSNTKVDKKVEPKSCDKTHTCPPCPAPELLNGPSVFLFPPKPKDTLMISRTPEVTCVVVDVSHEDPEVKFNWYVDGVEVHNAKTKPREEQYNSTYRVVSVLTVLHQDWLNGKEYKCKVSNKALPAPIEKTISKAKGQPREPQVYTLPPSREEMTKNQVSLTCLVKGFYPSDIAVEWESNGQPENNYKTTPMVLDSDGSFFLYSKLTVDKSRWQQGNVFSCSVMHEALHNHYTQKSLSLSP
light: B1 light
notes: as for B1
B4: M103205H795-MY101/M103202L889-SK1 (antibody, human IgG1, kappa)
heavy: B1 heavy with G273P, A332K, P398M
light: B1 light
notes: also called MS1032LO06-MY101
B5: M103205H795-MY052/M103202L889-SK1 (antibody, human IgG1, kappa)
heavy: B1 heavy with G273P, P398M
light: B1 light
notes: as for B1
B6: M103205H795-MY049/M103202L889-SK1 (antibody, human IgG1, kappa)
heavy: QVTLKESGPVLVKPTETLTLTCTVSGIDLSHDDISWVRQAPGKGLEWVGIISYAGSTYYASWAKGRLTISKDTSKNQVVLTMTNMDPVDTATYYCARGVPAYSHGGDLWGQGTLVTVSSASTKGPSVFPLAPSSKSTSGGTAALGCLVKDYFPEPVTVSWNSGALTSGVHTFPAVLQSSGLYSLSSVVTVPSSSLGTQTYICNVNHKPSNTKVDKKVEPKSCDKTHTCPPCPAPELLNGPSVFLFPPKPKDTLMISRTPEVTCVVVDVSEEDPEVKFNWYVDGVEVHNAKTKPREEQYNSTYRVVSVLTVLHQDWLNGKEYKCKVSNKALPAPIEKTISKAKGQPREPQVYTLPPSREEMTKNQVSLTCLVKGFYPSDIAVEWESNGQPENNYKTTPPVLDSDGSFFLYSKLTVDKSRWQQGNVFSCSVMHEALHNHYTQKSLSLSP
light: B1 light
notes: as for B1

Columns and labels:
[1] = molecular target: T1, cynomolgus monkey FcγRIIIaS …; test: SPR (Biacore), antibody captured, FcgR analyte
[2] = molecular target: T2, cynomolgus monkey FcγRIIb extracellular …; test: SPR (Biacore); KD of SG1 / KD of variant;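 also: relative to parent M103205H795-SG1 carrying the SG1 human heavy chain constant region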
Experimental: (§1) The kinetic analysis of interactions between these antibodies and FcγR was carried out using BIACORE® T200 or BIACORE® 4000 (GE Healthcare). HBS-EP+ (GE Healthcare) was used as the running buffer, and the measurement temperature was set to 25° C. A chip produced by immobilizing Protein A. Protein A/G or mouse anti-human IgG kappa light chain (BD Biosciences) onto a Series S Sensor Chip CM4 or CM5 (GE Healthcare) by the amine-coupling method was used. […] After the measurement, the antibody captured on the chip was washed off by allowing reaction with 10 mM glycine-HCl, pH1.5 and 25 mM NaOH so that the chip was regenerated and used repeatedly. The sensorgrams obtained as measurement results were analyzed by the 1:1 Langmuir binding model using the BIACORE® Evaluation Software to calculate the binding rate constant ka (L/mol/s) and dissociation rate constant kd (l/s), and the dissociation constant KD (mol/L) was calculated from these values. […] Regarding such interactions, KD values were calculated using the following 1:1 binding model described in BIACORE® T100 Software Handbook BR1006-48 Edition AE.
(§2) The behavior of interacting molecules according to the 1:1 binding model on BIACORE® can be described by Equation 1: Req=C·R max/(KD+C)+RI, wherein, Req is a plot of steady-state binding levels to analyte concentration. C is concentration, RI is bulk refractive index contribution in the sample, and Rmax is analyte binding capacity of the surface. When this equation is rearranged, KD can be expressed as Equation 2: KD=C·Rmax/(Req−RI)−C. KD can be calculated by substituting the values of Rmax, RI, and C into Equation 1 or Equation 2. From the current measurement conditions, RI=0, C=2 μmol/L can be used.

[3] = molecular target: T3, human FcγRIIaH extracellular domain, …; test: SPR (Biacore); KD of SG1 / KD of variant;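 also: relative to parent M103205H795-SG1 carrying the SG1 human heavy chain constant region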
Experimental: as §1, §2

[4] = molecular target: T8, human FcγRIIIaV extracellular domain, C-terminal His-tag (human, UniProt P08637 17-208); test: SPR (Biacore); KD of SG1 / KD of variant;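 also: relative to parent M103205H795-SG1 carrying the SG1 human heavy chain constant region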
T8 construct: also called human FcgRIIIaV; FcgRIIIaV
T8 sequence (P08637 17-208 F176V): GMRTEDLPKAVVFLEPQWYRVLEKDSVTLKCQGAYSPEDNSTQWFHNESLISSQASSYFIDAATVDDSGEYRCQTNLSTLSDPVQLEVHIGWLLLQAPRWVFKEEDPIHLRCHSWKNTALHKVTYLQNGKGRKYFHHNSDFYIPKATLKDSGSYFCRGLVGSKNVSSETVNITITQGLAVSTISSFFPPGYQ
Experimental: as §1, §2

[5] = molecular target: T4, human FcγRIIaR extracellular domain, …; test: SPR (Biacore); KD of SG1 / KD of variant;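 also: relative to parent M103205H795-SG1 carrying the SG1 human heavy chain constant region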
Experimental: as §1, §2

[6] = molecular target: T5, human FcγRIIb extracellular domain, …; test: SPR (Biacore); KD of SG1 / KD of variant
Experimental: as §1, §2

[7] = molecular target: T6, cynomolgus monkey FcγRIIa2 …; test: SPR (Biacore); KD of SG1 / KD of variant
Experimental: as §1, §2

[8] = molecular target: T1, cynomolgus monkey FcγRIIIaS …; test: SPR (Biacore); KD of SG1 / KD of variant
Experimental: as §1, §2

[9] = molecular target: T7, cynomolgus monkey FcγRIIa3 …; test: SPR (Biacore); KD of SG1 / KD of variant
Experimental: as §1, §2

Binder	Kd [1] [nM]	KD fold (SG1 = 1) [2] [fold]	KD fold (SG1 = 1) [3] [fold]	KD fold (SG1 = 1) [4] [fold]	KD fold (SG1 = 1) [5] [fold]	KD fold (SG1 = 1) [6] [fold]	KD fold (SG1 = 1) [7] [fold]	KD fold (SG1 = 1) [8] [fold]	KD fold (SG1 = 1) [9] [fold]
B1	2100	0.9	0.3	0.11	0.4	2.3	1.1	0.17	0.9
B2	1700	3.3	0.5	0.25	0.7	6.1	1.2	0.21	0.9
B3	54	2	0.6	0.07	0.4	1.4	3	0.07	2.4
B4	32000	5.1	1.4	0.07	1.3	9.4	4.3	0.11	4.7
B5	1500	8.9	0.8	0.18	0.5	6.4	3.4	0.14	4.4
B6	4600	2.1	0.4	0.1	0.1	3.1	2.2	0.08	2.6
